Assay in all cases: ELISA; dose-response of S protein binding to ACE2 and C-type lectins; which partner was coated and how binding was detected is not given for this experiment
On the technique in general: In an ELISA, binding on a coated surface is turned into a signal by an enzyme label.

Assay [1] has as its target Recombinant human CLEC10A (human) (UniProt Q8IUN9).
Assay [2] concerns the target Recombinant human CLEC2 (human) (UniProt Q9P126).
The target in assay [3] is Recombinant human CLEC5A (human) (UniProt Q9NY25).
In assay [4] the target is Recombinant human DC‐SIGN (human) (UniProt Q9NNX6).
For assay [5], the target named is Recombinant human L‐SIGN (human) (UniProt Q9H2X3).
UniProt Q9H2X3, sequence (Q9H2X3 whole entry): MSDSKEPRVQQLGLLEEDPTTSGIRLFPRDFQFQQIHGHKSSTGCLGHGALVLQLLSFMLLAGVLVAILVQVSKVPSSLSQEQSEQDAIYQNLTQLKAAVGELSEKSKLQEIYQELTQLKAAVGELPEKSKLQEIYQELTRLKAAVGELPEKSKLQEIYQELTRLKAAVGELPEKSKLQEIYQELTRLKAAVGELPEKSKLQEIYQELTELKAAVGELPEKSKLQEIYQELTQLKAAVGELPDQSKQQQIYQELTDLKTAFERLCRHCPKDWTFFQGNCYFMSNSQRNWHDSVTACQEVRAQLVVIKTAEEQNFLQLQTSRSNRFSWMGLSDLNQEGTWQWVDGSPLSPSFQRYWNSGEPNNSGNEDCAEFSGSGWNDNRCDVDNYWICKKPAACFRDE

UniProt Q8IUN9, sequence (Q8IUN9 whole entry): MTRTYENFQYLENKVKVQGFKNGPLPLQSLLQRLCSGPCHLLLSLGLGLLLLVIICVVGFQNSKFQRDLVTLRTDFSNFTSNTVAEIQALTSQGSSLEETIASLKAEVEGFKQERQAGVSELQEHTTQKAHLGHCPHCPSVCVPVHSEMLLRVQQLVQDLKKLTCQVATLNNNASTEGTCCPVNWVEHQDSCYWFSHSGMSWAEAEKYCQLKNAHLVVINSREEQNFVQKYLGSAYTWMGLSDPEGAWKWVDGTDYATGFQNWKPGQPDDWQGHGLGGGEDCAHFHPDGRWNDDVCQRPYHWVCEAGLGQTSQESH
UniProt Q9NNX6, sequence (Q9NNX6 whole entry): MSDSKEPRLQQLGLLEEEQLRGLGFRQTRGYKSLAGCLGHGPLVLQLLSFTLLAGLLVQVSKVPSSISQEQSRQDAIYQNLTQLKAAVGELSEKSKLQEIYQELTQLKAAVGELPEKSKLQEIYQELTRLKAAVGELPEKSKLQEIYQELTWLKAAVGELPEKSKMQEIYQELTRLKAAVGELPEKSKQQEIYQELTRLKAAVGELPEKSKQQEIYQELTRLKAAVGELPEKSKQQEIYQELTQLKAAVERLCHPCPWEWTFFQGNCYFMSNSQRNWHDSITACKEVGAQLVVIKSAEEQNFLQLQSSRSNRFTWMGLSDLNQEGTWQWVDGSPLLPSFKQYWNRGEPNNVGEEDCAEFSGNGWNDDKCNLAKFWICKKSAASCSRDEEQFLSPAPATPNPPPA
UniProt Q9NY25, sequence (Q9NY25 whole entry): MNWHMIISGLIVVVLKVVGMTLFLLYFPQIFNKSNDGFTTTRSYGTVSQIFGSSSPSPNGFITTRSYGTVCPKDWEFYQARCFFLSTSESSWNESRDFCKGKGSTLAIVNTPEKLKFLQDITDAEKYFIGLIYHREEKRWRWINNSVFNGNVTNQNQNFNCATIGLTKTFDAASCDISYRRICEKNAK
UniProt Q9P126, sequence (Q9P126 whole entry): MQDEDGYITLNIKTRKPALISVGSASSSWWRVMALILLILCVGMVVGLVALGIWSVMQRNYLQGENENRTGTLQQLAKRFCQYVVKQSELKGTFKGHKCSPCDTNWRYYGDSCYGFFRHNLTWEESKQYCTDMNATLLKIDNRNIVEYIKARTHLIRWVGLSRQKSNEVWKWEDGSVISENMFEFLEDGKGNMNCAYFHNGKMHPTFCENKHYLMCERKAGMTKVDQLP

For orientation: EC50 means the midpoint of the concentration-response curve. For “SARS‐CoV‐2 spike (S) protein (from UniProt P0DTC2 14-1213) (natural protein)”, the EC50 turned out to be 9.75 nM in assay [1]; 7.69 nM in assay [2]; 6.41 nM in assay [3]; 4.59 nM in assay [4]; 5.15 nM in assay [5].
